This note sets out measurements from paper PMC2642989, “Enhancement of the Seed-Target Recognition Step in RNA Silencing by a PIWI/MID Domain Protein”.

Data set [1] addresses T1, AfPiwi (UniProt O28951 1-427).
T1 sequence: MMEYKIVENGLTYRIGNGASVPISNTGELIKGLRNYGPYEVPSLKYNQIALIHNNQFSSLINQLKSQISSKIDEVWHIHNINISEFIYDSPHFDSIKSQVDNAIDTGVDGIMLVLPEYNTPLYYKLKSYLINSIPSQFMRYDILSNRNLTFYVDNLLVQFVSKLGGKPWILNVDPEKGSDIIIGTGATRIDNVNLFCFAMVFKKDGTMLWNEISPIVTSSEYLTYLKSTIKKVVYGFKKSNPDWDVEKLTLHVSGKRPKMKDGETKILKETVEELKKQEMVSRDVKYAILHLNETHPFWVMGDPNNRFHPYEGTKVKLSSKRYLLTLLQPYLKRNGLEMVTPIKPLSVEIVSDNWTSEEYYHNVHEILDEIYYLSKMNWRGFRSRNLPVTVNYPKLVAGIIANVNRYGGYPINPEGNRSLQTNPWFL
The data set is described as follows: ITC; target into AfPiwi-guide; 10 mM Mg2+; isolation 926 nM; ITC: 50 mM Tris pH 7.5, 150 mM KCl, 5% glycerol, 10 mM MgCl2, 1 mM DTT, 20 C; guide 3.5-24 uM in cell with 3-4 fold excess AfPiwi, target in syringe. As to conditions: protein: recombinant; T:G mismatch at guide position 1. In general terms: Isothermal titration calorimetry measures the heat released or taken up as one component is titrated into another.

In data set [2] the target is T1, AfPiwi. In words: ITC; target into AfPiwi-guide; 10 mM Mg2+; isolation 794 nM; ITC: 50 mM Tris pH 7.5, 150 mM KCl, 5% glycerol, 10 mM MgCl2, 1 mM DTT, 20 C; guide 3.5-24 uM in cell with 3-4 fold excess AfPiwi, target in syringe. The following applies: protein: recombinant; A:G mismatch at guide position 4.
Data set [3] concerns the target T1, AfPiwi. The data set is described as follows: ITC; target into AfPiwi-guide; 10 mM Mg2+; isolation 1490 nM; ITC: 50 mM Tris pH 7.5, 150 mM KCl, 5% glycerol, 10 mM MgCl2, 1 mM DTT, 20 C; guide 3.5-24 uM in cell with 3-4 fold excess AfPiwi, target in syringe. As to conditions: protein: recombinant; T:G mismatch at guide position 10.
Data set [4] deals with T1, AfPiwi. In words: ITC; AfPiwi into preformed duplex; endothermic; ITC: 50 mM Tris pH 7.5, 150 mM KCl, 5% glycerol, 10 mM MgCl2, 1 mM DTT, 20 C; guide 3.5-24 uM in cell with 3-4 fold excess AfPiwi, target in syringe. As to conditions: protein: recombinant; blunt.
Data set [5] has as its target T1, AfPiwi. The data set is described as follows: ITC; target into AfPiwi-guide; 10 mM Mg2+; isolation 4600 nM; ITC: 50 mM Tris pH 7.5, 150 mM KCl, 5% glycerol, 10 mM MgCl2, 1 mM DTT, 20 C; guide 3.5-24 uM in cell with 3-4 fold excess AfPiwi, target in syringe. As to conditions: protein: recombinant.
Data set [6] concerns the target T1, AfPiwi. In words: ITC; target into AfPiwi-guide; 10 mM Mg2+; isolation 7520 nM; ITC: 50 mM Tris pH 7.5, 150 mM KCl, 5% glycerol, 10 mM MgCl2, 1 mM DTT, 20 C; guide 3.5-24 uM in cell with 3-4 fold excess AfPiwi, target in syringe. As to conditions: protein: recombinant; one mismatch.
Data set [7] addresses T1, AfPiwi. In words: ITC; target into AfPiwi-guide; 10 mM Mg2+; isolation 725 nM in text, 990 nM in Table 2; ITC: 50 mM Tris pH 7.5, 150 mM KCl, 5% glycerol, 10 mM MgCl2, 1 mM DTT, 20 C; guide 3.5-24 uM in cell with 3-4 fold excess AfPiwi, target in syringe. The following applies: protein: recombinant.
Data set [8] deals with T1, AfPiwi. In words: ITC; target into AfPiwi-guide; 10 mM Mg2+; isolation 1.83 uM; ITC: 50 mM Tris pH 7.5, 150 mM KCl, 5% glycerol, 10 mM MgCl2, 1 mM DTT, 20 C; guide 3.5-24 uM in cell with 3-4 fold excess AfPiwi, target in syringe. As to conditions: protein: recombinant.
The target in data set [9] is T1, AfPiwi. In words: ITC; target into AfPiwi-guide; 10 mM Mg2+; isolation 1280 nM; ITC: 50 mM Tris pH 7.5, 150 mM KCl, 5% glycerol, 10 mM MgCl2, 1 mM DTT, 20 C; guide 3.5-24 uM in cell with 3-4 fold excess AfPiwi, target in syringe. The following applies: protein: recombinant; one mismatch.
The target in data set [10] is T1, AfPiwi. In words: ITC; target into AfPiwi-guide; 10 mM Mg2+; isolation 14600 nM; ITC: 50 mM Tris pH 7.5, 150 mM KCl, 5% glycerol, 10 mM MgCl2, 1 mM DTT, 20 C; guide 3.5-24 uM in cell with 3-4 fold excess AfPiwi, target in syringe. The following applies: protein: recombinant; one mismatch.
In data set [11] the target is T1, AfPiwi. The data set is described as follows: ITC; target into AfPiwi-guide; 10 mM Mg2+; isolation 3.6 nM; ITC: 50 mM Tris pH 7.5, 150 mM KCl, 5% glycerol, 10 mM MgCl2, 1 mM DTT, 20 C; guide 3.5-24 uM in cell with 3-4 fold excess AfPiwi, target in syringe. As to conditions: protein: recombinant; 11 bp, guide 3' overhang 1 nt.
Data set [12] concerns the target T1, AfPiwi. In words: ITC; target into AfPiwi-guide; 10 mM Mg2+; isolation 206 nM; ITC: 50 mM Tris pH 7.5, 150 mM KCl, 5% glycerol, 10 mM MgCl2, 1 mM DTT, 20 C; guide 3.5-24 uM in cell with 3-4 fold excess AfPiwi, target in syringe. As to conditions: protein: recombinant; T:G mismatch at guide position 8.

B1: Fig 5H DNA T:G mismatch at position 1 (dsDNA)
DNA 1: TGTAGGTT
DNA 2: AACCTACG
modifications: guide 5' phosphate
B1: in the data set with AfPiwi [1], the Kd turned out to be 17 ± 1.1 nM.

B2: Fig 5A RNA A:G mismatch at position 4 (dsRNA)
RNA 1: UGUAGGUU
RNA 2: AACCGACA
modifications: guide 5' phosphate
For the molecule B2, the Kd with AfPiwi [2] is 1160 ± 260 nM.

B3: Fig 5G DNA T:G mismatch at position 10 (dsDNA)
DNA 1: TGTAGGTTGTAT
DNA 2: ATGCAACC
modifications: guide 5' phosphate
Turning to B3, the Kd with AfPiwi [3] is 2850 ± 350 nM.

B4: Fig S3 preformed DNA duplex (dsDNA)
DNA 1: TTGAGTTT
DNA 2: AAACTCAA
modifications: 5' phosphate on strand 1
Take B4: the binding result with AfPiwi [4] is “binds”.

B5: Fig 3B RNA guide / RNA target (seed) (dsRNA)
RNA 1: UUGUUUGU
RNA 2: ACAAACA
modifications: guide 5' phosphate
Turning to B5, the dissociation constant (Kd) with AfPiwi [5] worked out at 82.2 ± 2.7 nM.

B6: Fig 5E DNA mismatch (dsDNA)
DNA 1: TGTAGGTT
DNA 2: AACCTGCA
modifications: guide 5' phosphate
For B6, the Kd in the data set with AfPiwi [6] came to 452 ± 27 nM.

B7: Fig 3A DNA guide / DNA target (seed) (dsDNA)
DNA 1: TGTAGGTT
DNA 2: AACCTACA
modifications: guide 5' phosphate
Consider B7, for which the dissociation constant (Kd) in the data set with AfPiwi [7] was determined as 29.2 ± 2 nM.

B8: Fig 3C DNA guide / RNA target (seed) (DNA:RNA)
DNA: TGTAGGTT
RNA: AACCUAC
modifications: guide 5' phosphate
As for B8, the Kd with AfPiwi [8] is 28 nM.

B9: Fig 5D RNA mismatch (dsRNA)
RNA 1: UGUAGGUU
RNA 2: ACCUGC
modifications: guide 5' phosphate
Consider B9, for which, in the data set with AfPiwi [9], the Kd turned out to be 2030 ± 150 nM.

B10: Fig 5B RNA mismatch (dsRNA)
RNA 1: UUGUUUGU
RNA 2: ACAAGCA
modifications: guide 5' phosphate
Regarding B10, the Kd with AfPiwi [10] was determined as 152 ± 16 nM.

B11: G12 guide / T11 target (dsDNA)
DNA 1: TGTAGGTTGCAT
DNA 2: TGCAACCTACA
modifications: guide (G12) 5' phosphate
For B11, the Kd in the data set with AfPiwi [11] turned out to be 8.4 nM.

B12: Fig 5F DNA T:G mismatch at position 8 (dsDNA)
DNA 1: TGTAGGTTGCAT
DNA 2: TGCGACCT
modifications: guide 5' phosphate
Turning to B12, in the data set with AfPiwi [12], the Kd was found to be 672 ± 82 nM.

In general, Kd refers to a measure of binding affinity in units of concentration.
